Experimental data from patent US20160251675.

System: Plant OsNAM12.1 (SUMOylated, from rice root protein extract; genotype of the sample not stated)

deSUMOylating protease Ulp1
deSUMOylation by protease treatment, immunoblot: putative di-SUMOylated (-53 kD; 29+12+12) rather than the putative mono-SUMOylated (-41 kD; 29+12) OsNAM12.1 was preferentially deSUMOylated
